Assays:
SpLsm5;SpLsm6;SpLsm7 = SpLsm5;SpLsm6;SpLsm7 (Schizosaccharomyces …, UniProt O42978;Q9UUI1;O74499 1-80;1-75;1-113, ||); experiment: fluorescence anisotropy; FA: 20 mM Hepes pH 7.5, 100 mM NaCl, 25 C, 0.1 uM RNA; SPR (Biacore 3000): 20 mM Hepes pH 7.5, 100 mM NaCl, 25 C, 1 uM protein; conditions: protein: recombinant;recombinant;recombinant; tags: N-terminal His6;none;; chain copies: 2;2;2; label: 5' 6-FAM; single strand
[1] = target: SpLsm2 (of SpLsm2/3);SpLsm3 (of SpLsm2/3) (Schizosaccharomyces …, UniProt O94408;Q9Y7M4 1-96;1-93, |); experiment: as above; conditions: protein: recombinant;recombinant; tags: N-terminal His6;none; label: 5' 6-FAM; single strand
SpLsm2 (of SpLsm2/3);SpLsm3 (of SpLsm2/3), sequence (O94408 whole entry, chain 1 of 2): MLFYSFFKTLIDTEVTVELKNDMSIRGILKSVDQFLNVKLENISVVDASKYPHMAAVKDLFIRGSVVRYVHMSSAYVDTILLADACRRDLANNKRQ
SpLsm2 (of SpLsm2/3);SpLsm3 (of SpLsm2/3), sequence (Q9Y7M4 whole entry, chain 2 of 2): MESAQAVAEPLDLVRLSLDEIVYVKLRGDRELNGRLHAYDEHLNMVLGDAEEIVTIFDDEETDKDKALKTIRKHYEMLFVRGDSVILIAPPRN

ScLsm3 = target: T1, ScLsm3 (Saccharomyces cerevisiae, UniProt P57743 1-89); experiment: SPR; 1 uM protein; FA: 20 mM Hepes pH 7.5, 100 mM NaCl, 25 C, 0.1 uM RNA; SPR (Biacore 3000): 20 mM Hepes pH 7.5, 100 mM NaCl, 25 C, 1 uM protein; conditions: protein: recombinant; tags: His6 removed by PreScission; chain copies: 8; label: 5' biotin; single strand
T1 sequence: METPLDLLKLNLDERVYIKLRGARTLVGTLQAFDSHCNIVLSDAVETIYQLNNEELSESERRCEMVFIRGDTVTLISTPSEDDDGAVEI

SpLsm5;SpLsm6;SpLsm7, sequence (O42978 whole entry, chain 1 of 3): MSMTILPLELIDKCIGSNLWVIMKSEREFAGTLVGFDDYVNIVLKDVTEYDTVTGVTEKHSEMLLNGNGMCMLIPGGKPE
SpLsm5;SpLsm6;SpLsm7, sequence (Q9UUI1 whole entry, chain 2 of 3): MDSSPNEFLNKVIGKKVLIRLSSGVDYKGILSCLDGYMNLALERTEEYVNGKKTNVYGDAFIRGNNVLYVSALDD
SpLsm5;SpLsm6;SpLsm7, sequence (O74499 whole entry, chain 3 of 3): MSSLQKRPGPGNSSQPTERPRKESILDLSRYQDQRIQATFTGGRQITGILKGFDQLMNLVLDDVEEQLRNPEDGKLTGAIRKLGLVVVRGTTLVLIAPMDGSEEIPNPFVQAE

B1: U15 (FAM) (ssRNA)
RNA: UUUUUUUUUUUUUUU
Kd (SpLsm5;SpLsm6;SpLsm7): 52.5 ± 10 µM | Kd [1]: 4 ± 0.5 µM

B2: U15 (biotin) (ssRNA)
RNA: UUUUUUUUUUUUUUU
binding result (ScLsm3): no binding
